The source of these data is EP3277718B1 (Baxalta GmbH, dated 2021).

In assay [1] the target is T1, human MIF (macrophage migration inhibitory factor), recombinant (human, UniProt P14174 2-115).
T1 construct: The background says that MIF crystallises as a trimer; In the potency rows the target is the endogenous MIF of human U937 cells; also called GIF
As to the kind of experiment: SPR, Biacore 3000, RAM9 amine-coupled to CM5 chip, MIF injected at 40-480 nM, 1:1 Langmuir fit with mass transfer.

For assay [2], the target named is T1, human MIF (macrophage migration …). In words: cell-based or functional assay.

T1 sequence (P14174 2-115 limits assumed): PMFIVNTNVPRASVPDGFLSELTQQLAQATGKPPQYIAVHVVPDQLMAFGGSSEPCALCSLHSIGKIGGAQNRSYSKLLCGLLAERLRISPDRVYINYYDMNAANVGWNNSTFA

B1: RAM9 (antibody, human IgG1, kappa, V domains shown)
VH: EVQLLESGGGLVQPGGSLRLSCAASGFTFSIYSMNWVRQAPGKGLEWVSSIGSSGGTTYYADSVKGRFTISRDNSKNTLYLQMNSLRAEDTAVYYCAGSQWLYGMDVWGQGTTVTVSS
VL: DIQMTQSPSSLSASVGDRVTITCRSSQRIMTYLNWYQQKPGKAPKLLIFVASHSQSGVPSRFRGSGSETDFTLTISGLQPEDSATYYCQQSFWTPLTFGGGTKVEIKR
notes: also deposited as plasmids DSM 25860 (hc) and DSM 25859 (lc); also called anti-MIF antibody RAM9; anti-oxMIF antibody
As to B1, in assay [1], the Kd is 1.7 nM. Also, the “Potency (IC 50); inhibition of random migration of human U937 cells, Transwell chemokinesis assay” value in assay [2] is 1 nM.
